Source: the Human Domainome abundance scans (Beltran et al. 2025)
± gives the uncertainty stated by the source.

B1: Histidine--tRNA ligase, cytoplasmic, residues 8 to 45; numbered along this chain, P12081 (parent)
chain: EELVKLQGERVRGLKQQKASAELIEEEVAKLLKLKAQL

Variants of: B1
Assay: abundance fitness (aPCA) (normalised: wild type 0, dead -1); higher = more abundant; growth selection in yeast, the domain comes from the species named
Settings: Homo sapiens

Abundance fitness of substitutions, site by site:
Q17: I -0.388 ± 0.091, H -0.446 ± 0.19, R -0.196 ± 0.073, W -0.5 ± 0.18, D -0.11 ± 0.12, S 0.055 ± 0.084, V -0.258 ± 0.094, M 0.052 ± 0.11, L -0.232 ± 0.073, P -0.369 ± 0.13, G -0.071 ± 0.08, F -0.396 ± 0.085
S20: R -0.019 ± 0.079, W -1.1 ± 0.1, F -1.09 ± 0.1, Q -0.057 ± 0.1, G -0.022 ± 0.091, C -0.09 ± 0.095, D 0.038 ± 0.073, E 0.068 ± 0.12, K -0.118 ± 0.083, Y -0.945 ± 0.17, H -0.128 ± 0.11, T -0.132 ± 0.079, V -0.693 ± 0.11, L -0.781 ± 0.1, M -0.431 ± 0.094, N 0.026 ± 0.081
V28: S 0.094 ± 0.08, A 0.177 ± 0.095, F -0.378 ± 0.078, D 0.152 ± 0.11, C -0.076 ± 0.093, E 0.316 ± 0.13, Q 0.366 ± 0.1, N 0.081 ± 0.098, R -0.027 ± 0.084, T 0.159 ± 0.099, H -0.012 ± 0.1, L -0.271 ± 0.076, G -0.195 ± 0.11, P -0.119 ± 0.1, M 0.06 ± 0.1, I -0.303 ± 0.09, K 0.107 ± 0.14
K30: L -0.211 ± 0.076, G -0.364 ± 0.11, I -0.232 ± 0.098, C -0.411 ± 0.08, P -0.219 ± 0.074, Q -0.102 ± 0.12, T -0.246 ± 0.078, W -0.639 ± 0.12, N -0.119 ± 0.084, V -0.136 ± 0.094, A -0.04 ± 0.081, H -0.247 ± 0.097, S -0.218 ± 0.069, Y -0.484 ± 0.11, M -0.234 ± 0.13, F -0.722 ± 0.097, D 0.072 ± 0.15, E 0.1 ± 0.09, R -0.204 ± 0.079
A19: G -0.27 ± 0.076, E -0.17 ± 0.12, D -0.285 ± 0.089, P -0.145 ± 0.1, L -0.504 ± 0.088, M -0.039 ± 0.13, W -0.424 ± 0.12, T -0.174 ± 0.083, Q -0.173 ± 0.094, F -0.384 ± 0.12, C -0.034 ± 0.14, R -0.255 ± 0.079, S -0.21 ± 0.082, Y -0.612 ± 0.15, N -0.406 ± 0.14, I -0.538 ± 0.15, K -0.264 ± 0.18
L31: P 0.123 ± 0.088, K 0.002 ± 0.098, W -0.172 ± 0.093, Y -0.199 ± 0.1, S 0.026 ± 0.076, D 0.222 ± 0.094, N 0.22 ± 0.11, F -0.397 ± 0.084, M -0.338 ± 0.12, C -0.187 ± 0.097, I -0.426 ± 0.087, H -0.144 ± 0.11, Q 0.087 ± 0.12, T -0.058 ± 0.093, V -0.436 ± 0.073, R -0.126 ± 0.07, G -0.044 ± 0.093, A -0.084 ± 0.1, E 0.257 ± 0.09
E22: P -0.007 ± 0.1, C -0.107 ± 0.096, K 0.075 ± 0.12, L -0.149 ± 0.081, M -0.046 ± 0.094, D 0.04 ± 0.1, H -0.156 ± 0.14, R -0.023 ± 0.079, N 0.055 ± 0.12, G -0.03 ± 0.096, Q 0.13 ± 0.1, A 0.069 ± 0.081, I -0.156 ± 0.1, Y -0.288 ± 0.11, T 0.091 ± 0.08, W -0.577 ± 0.16, F -0.311 ± 0.091, V 0.052 ± 0.1
L32: H 0.08 ± 0.087, N 0.247 ± 0.091, V -0.076 ± 0.083, S 0.112 ± 0.09, D 0.174 ± 0.1, Q 0.201 ± 0.095, K 0.105 ± 0.11, R 0.096 ± 0.079, G 0.121 ± 0.091, F -0.289 ± 0.076, M 0.206 ± 0.087, T 0.117 ± 0.13, I -0.093 ± 0.1, W -0.098 ± 0.1, P 0.098 ± 0.11, A 0.227 ± 0.089, C 0.116 ± 0.096
A29: V -0.277 ± 0.084, C -0.415 ± 0.093, N -0.183 ± 0.081, M -0.069 ± 0.11, L -0.462 ± 0.083, F -0.8 ± 0.11, T -0.26 ± 0.1, Q 0.07 ± 0.11, K -0.299 ± 0.17, W -0.804 ± 0.17, R -0.189 ± 0.076, H -0.265 ± 0.093, P -0.37 ± 0.09, G -0.092 ± 0.09, D 0.106 ± 0.11, I -0.618 ± 0.11
Q16: N 0.076 ± 0.1, K -0.004 ± 0.085, S -0.004 ± 0.078, W -0.483 ± 0.12, M 0.028 ± 0.078, G -0.242 ± 0.079, E 0.132 ± 0.095, I -0.227 ± 0.076, V -0.039 ± 0.1, A 0.144 ± 0.083, D 0.083 ± 0.12, R -0.11 ± 0.082, H -0.134 ± 0.095, P -0.223 ± 0.089, Y -0.427 ± 0.11, T -0.08 ± 0.095, C -0.288 ± 0.096, L -0.057 ± 0.072, F -0.397 ± 0.08
I24: W -1.01 ± 0.31, Q 0.163 ± 0.09, N -0.137 ± 0.1, L 0.03 ± 0.072, Y 0.131 ± 0.18, R -0.184 ± 0.081, G -0.068 ± 0.085, T -0.012 ± 0.088, M -0.03 ± 0.077, K 0 ± 0.09, A -0.027 ± 0.078, H 0.169 ± 0.1, S -0.171 ± 0.08, E -0.151 ± 0.15, V -0.035 ± 0.078, D 0.055 ± 0.14, F 0.069 ± 0.091
E25: P -0.208 ± 0.095, T -0.009 ± 0.081, N 0.055 ± 0.13, D 0.012 ± 0.097, L -0.484 ± 0.098, K -0.001 ± 0.11, Q 0.071 ± 0.097, G -0.052 ± 0.077, S 0.032 ± 0.073, I -0.621 ± 0.13, H 0 ± 0.09, M -0.184 ± 0.11, R -0.064 ± 0.069, C -0.331 ± 0.16, A 0.128 ± 0.091, W -0.586 ± 0.11
K18: G 0.172 ± 0.078, A 0.047 ± 0.085, P 0.004 ± 0.082, T -0.083 ± 0.099, D 0.221 ± 0.1, M 0.067 ± 0.31, V -0.236 ± 0.075, Q 0.066 ± 0.076, W -0.619 ± 0.13, I -0.375 ± 0.14, Y -0.342 ± 0.088, F -0.45 ± 0.11, C -0.112 ± 0.1, H 0.239 ± 0.11, R -0.06 ± 0.074
L34: R -0.151 ± 0.097, T -0.066 ± 0.091, I -0.176 ± 0.085, D 0.05 ± 0.12, P 0.209 ± 0.089, M 0.121 ± 0.12, K -0.1 ± 0.094, Q 0.061 ± 0.11, H -0.06 ± 0.097, E 0.083 ± 0.084, F -0.148 ± 0.095, C -0.197 ± 0.078, A -0.054 ± 0.094, G -0.128 ± 0.079
L14: Y -0.458 ± 0.14, W -0.467 ± 0.1, S -0.101 ± 0.077, Q -0.173 ± 0.11, R -0.332 ± 0.08, T -0.334 ± 0.1
E26: W -0.594 ± 0.12, H 0.284 ± 0.12, V -0.116 ± 0.084, S 0.184 ± 0.074, F -0.038 ± 0.083, D -0.009 ± 0.096, C -0.024 ± 0.085, R 0.1 ± 0.08, L -0.046 ± 0.067, K 0.184 ± 0.092, A 0.263 ± 0.087, Q 0.139 ± 0.093, G -0.146 ± 0.11, M 0.168 ± 0.1, I 0.086 ± 0.13, P -0.024 ± 0.084
E27: A -0.108 ± 0.089, W -1.11 ± 0.13, K -0.649 ± 0.15, S -0.291 ± 0.077, N -0.079 ± 0.078, M -0.874 ± 0.16, V -1.1 ± 0.093, H -0.436 ± 0.093, R -0.741 ± 0.084, P -0.214 ± 0.091, I -1.47 ± 0.15, T -0.798 ± 0.085
A21: V -0.161 ± 0.082, M 0.116 ± 0.12, Q 0.039 ± 0.13, C -0.202 ± 0.17, K 0.055 ± 0.21, N 0.119 ± 0.13, R -0.086 ± 0.071, H -0.004 ± 0.086, Y -0.208 ± 0.11, L -0.058 ± 0.096, P 0.184 ± 0.072, S 0.072 ± 0.096, I -0.101 ± 0.12, T -0.006 ± 0.11, G -0.151 ± 0.078, D 0.13 ± 0.097, F -0.075 ± 0.11, W -0.49 ± 0.12, E 0.085 ± 0.2
K33: C -0.451 ± 0.093, A -0.081 ± 0.11, P -0.056 ± 0.097, V -0.436 ± 0.083, S 0.071 ± 0.074, G -0.147 ± 0.089, Q 0.037 ± 0.1, I -0.407 ± 0.14, Y -0.313 ± 0.1, L -0.34 ± 0.083, E 0.226 ± 0.13, T -0.093 ± 0.095, R -0.109 ± 0.075, F -0.338 ± 0.11, N -0.203 ± 0.26, H -0.039 ± 0.084
L23: P -0.004 ± 0.086, S -0.266 ± 0.085, T 0.071 ± 0.082, H -0.075 ± 0.11, K 0.045 ± 0.091, Y -0.358 ± 0.091, D -0.072 ± 0.12, G -0.143 ± 0.083, V 0.2 ± 0.082, I 0.188 ± 0.12, N -0.04 ± 0.11, R -0.001 ± 0.073, Q 0.262 ± 0.1, A -0.037 ± 0.073, M 0.243 ± 0.13
K15: Y -0.41 ± 0.11, M 0.149 ± 0.12, S -0.184 ± 0.082, A -0.107 ± 0.069, G -0.274 ± 0.07, W -0.412 ± 0.094, Q 0.061 ± 0.093, L -0.13 ± 0.075, F -0.164 ± 0.088, V -0.103 ± 0.087, T 0.001 ± 0.081, H -0.127 ± 0.087, N -0.135 ± 0.093, I 0.017 ± 0.095, D -0.271 ± 0.14, C -0.27 ± 0.093, E 0.187 ± 0.11, R -0.1 ± 0.073
